Experimental findings from article PMC3228729, “Localization of ASV Integrase-DNA Contacts by Site-Directed Crosslinking and their Structural Analysis” are described below.

The target in the data set is T1, ASV integrase WT (avian sarcoma virus, UniProt P03354 1281-1567).
T1 sequence: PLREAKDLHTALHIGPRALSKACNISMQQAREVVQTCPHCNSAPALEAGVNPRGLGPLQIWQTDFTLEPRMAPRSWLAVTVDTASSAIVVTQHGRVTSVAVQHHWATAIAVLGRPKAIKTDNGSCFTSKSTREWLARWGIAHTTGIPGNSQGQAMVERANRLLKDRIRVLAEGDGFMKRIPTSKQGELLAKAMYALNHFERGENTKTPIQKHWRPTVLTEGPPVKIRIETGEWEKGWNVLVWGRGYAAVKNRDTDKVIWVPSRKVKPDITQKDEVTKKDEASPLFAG
Description: photocrosslinking; DNA-borne diazirine; among highest efficiency; Photocrosslinking: 40 mM HEPES pH 6.5, 150 mM NaCl, 5% glycerol, 0 C, 10 uM IN, 0.05 uM DNA; disulfide: Buffer 1 adjusted to 250-300 mM NaCl, pH 7.5, on ice, +/-10 mM MgCl2. As to conditions: protein: recombinant; label: 32P; blunt.

B1: NH2-4.12 linear (dsDNA)
DNA 1: GAGTATTGCATAAGACTACATT
DNA 2: AATGTAGTCTTATGCAATACTC
modifications: 5-aminouridine at position 12 of strand 4 (paper numbering), carrying aryl diazirine
Regarding B1, the binding result is listed as “binds”.

B2: NH2-3.11 linear (dsDNA)
DNA 1: AATGTAGTCTTATGCAATACTC
DNA 2: GAGTATTGCATAAGACTACATT
modifications: 5-aminouridine replacing T at position 11 of strand 3 (paper numbering), carrying aryl diazirine
Turning to B2, the binding result is recorded as “binds”.
